Patent publication US20120277142A1 (HANALL BIOPHARMA, published 2012)
Where a chain is given by its changes, count along the chain named.

B1: TNFRI126-A2 (receptor)
chain: MDSVCPQGKYIHPQNNSICCTKCHKGTYLYNDCPGPGQDTDCRECESGSFTAIENFLPACLSCSKCRKEMGQVEISSCTVDRDTVCGCRKNQYRHYWSENLFQCFNCSLCLNGTVHLSCQEKQNTVC
notes: Met-TNFRI126 mutant made in E. coli
B2: TNFRI126-A12 (receptor)
chain: B1 chain with I53N
notes: as for B1
B3: TNFRI126-A16 (receptor)
chain: B1 chain with I53K
notes: as for B1
B4: TNFRI126-A18 (receptor)
chain: B1 chain with I53H
notes: as for B1
B5: TNFRI126-A17 (receptor)
chain: B1 chain with I53R
notes: as for B1
B6: TNFRI126-A8 (receptor)
chain: B1 chain with I53F
notes: as for B1
B7: TNFRI126-A15 (receptor)
chain: B1 chain with I53Y
notes: as for B1
B8: TNFRI126-A10 (receptor)
chain: B1 chain with I53W
notes: as for B1
B9: TNFRI126-A9 (receptor)
chain: B1 chain with I53M
notes: as for B1
B10: TNFRI126-A5 (receptor)
chain: B1 chain with I53V
notes: as for B1
B11: TNFRI126-A14 (receptor)
chain: B1 chain with I53T
notes: as for B1
B12: TNFRI126-A7 (receptor)
chain: B1 chain with I53P
notes: as for B1
B13: TNFRI126-A13 (receptor)
chain: B1 chain with I53Q
notes: as for B1
B14: TNFRI126-A4 (receptor)
chain: B1 chain with I53A
notes: as for B1
B15: TNFRI126-A6 (receptor)
chain: B1 chain with I53L
notes: as for B1
B16: TNFRI126-A19 (receptor)
chain: B1 chain with I53D
notes: as for B1
B17: TNFRI126-A1 (receptor)
chain: B1 chain with I53S
notes: as for B1
B18: TNFRI126-A3 (receptor)
chain: B1 chain with I53G
notes: as for B1
B19: TNFRI171-S31 (receptor)
chain: MDSVCPQGKYIHPQNNSICCTKCHKGTYVYNDCPGPGQDTDCRECESGSFTAIENFLPACLSCSKCRKEMGQVEISSCTVDRDTVCGCRKNQYRHYWSENLFQCFNCSLCLNGTVHLSCQEKQNTVCTCHAGFFLRENECVSCSNCKKSLECTKLCLPQIENVKGTEDSGTT
notes: Met-TNFRI171 superlead mutant made in E. coli
B20: TNFRI171-S52 (receptor)
chain: B19 chain with V29L, E54P, A59G, D168N
notes: as for B19
B21: TNFRI171-S47 (receptor)
chain: B19 chain with I53M, A59G
notes: as for B19
B22: TNFRI171-S59 (receptor)
chain: B19 chain with I53H, K122Q
notes: as for B19
B23: TNFRI171-S36 (receptor)
chain: B19 chain with I53M
notes: as for B19
B24: TNFRI171-S53 (receptor)
chain: B19 chain with K122Q
notes: as for B19
B25: TNFRI171-S39 (receptor)
chain: B19 chain with V29L, I53M, E161Q
notes: as for B19
B26: TNFRI171-S51 (receptor)
chain: B19 chain with V29L, E54P, A59G, E161Q
notes: as for B19
B27: TNFRI171-S43 (receptor)
chain: B19 chain with V29L, I53H, K122N
notes: as for B19
B28: TNFRI171-S60 (receptor)
chain: B19 chain with I53H, K122N
notes: as for B19
B29: TNFRI171-S62 (receptor)
chain: B19 chain with A59G, K122Q
notes: as for B19
B30: TNFRI171-S35 (receptor)
chain: B19 chain with V29L, D168N
notes: as for B19
B31: TNFRI171-S41 (receptor)
chain: B19 chain with I53H
notes: as for B19
B32: TNFRI171-S44 (receptor)
chain: B19 chain with V29L, I53H, E161Q
notes: as for B19
B33: TNFRI171-S54 (receptor)
chain: B19 chain with K122N
notes: as for B19
B34: TNFRI171-S61 (receptor)
chain: B19 chain with I53H, D168N
notes: as for B19
B35: TNFRI171-S50 (receptor)
chain: B19 chain with V29L, E54P, A59G, K122N
notes: as for B19
B36: TNFRI171-S55 (receptor)
chain: B19 chain with D168N
notes: as for B19
B37: TNFRI171-S57 (receptor)
chain: B19 chain with I53M, K122N
notes: as for B19
B38: TNFRI171-S45 (receptor)
chain: B19 chain with V29L, I53H, D168N
notes: as for B19
B39: TNFRI171-S32 (receptor)
chain: B19 chain with V29L, K122Q
notes: as for B19
B40: TNFRI171-S38 (receptor)
chain: B19 chain with V29L, I53M, K122N
notes: as for B19
B41: TNFRI171-S34 (receptor)
chain: B19 chain with V29L, E161Q
notes: as for B19
B42: TNFRI171-S49 (receptor)
chain: B19 chain with V29L, E54P, A59G, K122Q
notes: as for B19
B43: TNFRI171-S48 (receptor)
chain: B19 chain with E54P, A59G
notes: as for B19
B44: TNFRI171-S37 (receptor)
chain: B19 chain with V29L, I53M, K122Q
notes: as for B19
B45: TNFRI171-S63 (receptor)
chain: B19 chain with I53M, A59G, K122N
notes: Met-TNFRI171 superlead mutant made in E. coli; also called TNFRI-S63
B46: TNFRI171-S46 (receptor)
chain: B19 chain with A59G
notes: as for B19
B47: TNFRI171-S58 (receptor)
chain: B19 chain with I53M, D168N
notes: as for B19
B48: TNFRI171-S40 (receptor)
chain: B19 chain with V29L, I53M, D168N
notes: as for B19
B49: TNFRI171-S56 (receptor)
chain: B19 chain with I53M, K122Q
notes: as for B19
B50: TNFRI171-S42 (receptor)
chain: B19 chain with V29L, I53H, K122Q
notes: as for B19
B51: TNFRI171-S33 (receptor)
chain: B19 chain with V29L, K122N
notes: as for B19

Tests used:
TNF-α [1] = target: T1, TNF-α (UniProt P01375 77-233, limits assumed); assay: competition ELISA: sample vs plate-bound TNFRI190 for TNF-α, from IC50, relative to wild-type TNFRI126
T1 construct: also called tumor necrosis factor; ligand
Procedure: (§1) Each well was washed three times with 300 μL of washing buffer (0.05% Tween-20, PBS, pH 7.4) and incubated at room temperature for 2 hours with 300 μL of a blocking buffer (5% skim milk, PBS, pH 7.4). Then, each well was washed as mentioned above. A sample of interest was diluted to concentrations of 500 nM, 125 nM, 31 nM, 7.8 nM, 1.9 nM, 0.48 nM, 0.12 nM, and 0.03 nM in series and loaded in an amount of 100 μL into each well in duplicate. To each well was added 100 μL of 50 ng/ml TNF-α, followed by incubation at room temperature for 2 hours. After the wells were washed with a washing buffer, 100 μg/mL anti-TNF-α antibody solution was diluted 1/1000, added in an amount of 100 μL per each well, and incubated at room temperature for 2 hours. After the plates were washed with a washing buffer, a substrate was added in an amount of 100 μL to each well and reacted at room temperature for 15 min. In each well, 100 μL of the substrate 3,3′,5,5′-tetramethylbenzidine (RnD, Cat. No: DY999) was reacted at room temperature for 15 min, followed by adding 50 μL of 1.0 M sulfuric acid (Samchun Chemical, Cat. No: 52129) to each well to stop the reaction.
Affinity of Met-TNFRI and Met-TNFRI mutants for TNF-α was determined by measuring an absorbance change with concentration and evaluating IC₅₀ value by measuring an absorbance change with concentration.

TNF-α [2] = target: T1, TNF-α; assay: competition ELISA: sample vs plate-bound TNFRI190 for TNF-α, from IC50, relative to wild-type TNFRI171
Procedure: as §1
The affinity of the Met-TNFRI for TNF-α was assayed using the same procedure as in [Experimental Example 1]

Binder	Affinity (%) (TNF-α [1])	Relative Affinity for Ligand (%) (TNF-α [2])
B1	829%	
B2	659%	
B3	882%	
B4	1010%	
B5	771%	
B6	865%	
B7	941%	
B8	800%	
B9	941%	
B10	712%	
B11	765%	
B12	600%	
B13	806%	
B14	524%	
B15	741%	
B16	482%	
B17	324%	
B18	341%	
B19		563%
B20		626%
B21		758%
B22		684%
B23		510%
B24		1020%
B25		705%
B26		537%

Binder	Affinity (%) (TNF-α [1])	Relative Affinity for Ligand (%) (TNF-α [2])
B27		579%
B28		775%
B29		1200%
B30		521%
B31		558%
B32		694%
B33		900%
B34		778%
B35		589%
B36		973%
B37		773%
B38		679%
B39		668%
B40		589%
B41		700%
B42		547%
B43		594%
B44		668%
B45		1350%
B46		805%
B47		978%
B48		773%
B49		510%
B50		416%
B51		568%
